Experimental data as given in patent publication US10398755B2, “Clusterin pharmaceuticals and treatment methods using the same” (UNIVERSITY OF SOUTHERN CALIFORNIA, priority 2009, dated 2019).

System: MMP-9
Assay: MMP inhibition assay (FRET peptide substrate), APMA-activated pro-MMP-9
Assay type: biochemical
Description: Pro-MMP-9 (A) or pro-MMP-2 (C) was incubated with PBS, CLU (50 μg/ml, or 0.63 μM), SB3-CT (2 μM), or BSA (50 μg/ml), and MMP FRET substrate peptides in the presence and absence of […] APMA at RT for 3 h. RFU, relative fluorescence unit, was obtained by considering the read out in PBS as 100%. Each reaction was performed in triplicate. Standard errors were depicted as a bar in each graph. Differences between values of PBS and CLU or SB-3CT reactions were statistically significant by Student t-test: *P=0.0004, **P=0.0001, +P=0.0003, and ++P=0.01. Gelatin zymography was performed with the samples pooled from each reaction set. Pro-MMPs, processed MMPs (MMP-9 or MMP-2), and C-terminal truncated, processed MMP-9 (MMP-9-ΔC) were indicated by arrows. (B) Dose-dependent inhibition of MMP-9 by CLU or SB-3CT was performed in the same condition. MMPs were mixed with CLD in TSCB buffer, 50 mM Tris-HCI, pH, 7.5, 150 mM NaCl, 5 mM CaCl2, 0.002% Brij35 (or otherwise indicated concentration) 30 min prior to substrate addition, and incubated for 3 h at RT in the presence or absence of 0.02 mM p-aminophenylmercuric acetate (APMA). MMP activity was measured using a 5-FAM/QXL520 fluorescence resonance energy transfer (FRET) peptide as a substrate (EXlEm=490 nm/520 nm) (AnaSpec, Fremont, Calif.), according to the manufacturer's protocol. Relative fluorescence unit (RFU) was obtained by subtracting the values of APMA- or enzyme-omitted reactions from those of test samples, and then considering the fluorescence unit of a PBS (vehicle) sample as 100%. Enzyme reactions were performed in black 96-well plate, containing combinations of 10 ng, 5 ng, 5 ng, 10 ng, 2.5 μg, 2.5 μg of MMP-2, MMP-7, catalytic domain of MMP-9, MMP-9, CCLU, and/or BSA, respectively, in 50 μl reaction volume. As MMP substrates (0.4 μM), 520 MMP FRET substrate […] (SEQ ID NO: 9), was used for MMP-2 and MMP-9, and 520 MMP FRET substrate XIV, […] (SEQ ID NO: 10), used for MMP-7 reactions, both of which were purchased from AnaSpec (Fremont, Calif.). Recombinant proteins such as mouse CLU with C-terminal (His)6 (CLU-His), MMP-2, and MMP-7 were purchased from R&D Systems (Minneapolis, Minn.), MMP-9 was purchase from Ana-Spec, Inc. (San Jose, Calif.). The recombinant catalytic domain of human MMP-9 (residue 112-445) was purchased from ProtEra (Sesto Fiorentino, Italy). A gelatinase-specific synthetic inhibitor, SB-3CT, was obtained from Biomol International (Plymouth Meeting, Pa.). Fluorescence was monitored using a Victor^3TM V multilabel counter (PerkinElmer). For the gelatin digestion, a 50 μl mixture of gelatin (20 μg) and CLU (2 μg) was incubated with or without active MMP-9 (70 ng) for 2 hours at 37° C. The reaction products were run on a 12% denaturing SDS/PAGE gel for Coomasie staining. […] To determine whether MMP-9/CLU interaction affects the cleavage process of the propeptide of MMP-9 and/or interferes with enzymatic activity of the processed active enzyme, we performed an in vitro MMP-9 inhibition assay, by adopting FRET assay using a fluorescence-quenched peptide substrate (FIG. 3A). […] We incubated pro-MMP-9 with PBS, CLU, SB-3CT, or BSA, and a fluorescence peptide substrate in the presence or absence of APMA. […] We monitored the change in fluorescence value during the incubation of the reactions up to 3 h, which reflects the enzymatic activity of APMA-activated MMPs. […] At 3 h post incubation, the activity difference was read and reaction products were resolved by gelatin zymography. […]

B1: CLU: secreted disulfide-linked heterodimeric glycoprotein (70-80 KD); assays used recombinant mouse CLU with C-terminal (His)6 (protein, UniProt Q06890 22-448, looked up)
Clusterin: EQEVSDNELQELSTQGSRYINKEIQNAVQGVKHIKTLIEKTNAERKSLLNSLEEAKKKKEDALEDTRDSEMKLKAFPEVCNETMMALWEECKPCLKHTCMKFYARVCRSGSGLVGQQLEEFLNQSSPFYFWMNGDRIDSLLESDRQQSQVLDAMQDSFARASGIIDTLFQDRFFARELHDPHYFSPIGFPHKRPHFLYPKSRLVRSLMSPSHYGPPSFHNMFQPFFEMIHQAQQAMDVQLHSPAFQFPDVDFLREGEDDRTVCKEIRRNSTGCLKMKGQCEKCQEILSVDCSTNNPAQANLRQELNDSLQVAERLTEQYKELLQSFQSKMLNTSSLLEQLNDQFNWVSQLANLTQGEDKYYLRVSTVTTHSSDSEVPSRVTEVVVKLFDSDPITVVLPEEVSKDNPKFMDTVAEKALQEYRRKSRAE
modifications: C-terminal His6 tag
50 μg/ml of CLU, p=0.002
  average inhibition of MMP-9, three independent experiments in triplicate: 35%
APMA-treated reactions
  effect on APMA-induced processing of pro-MMP-9 (zymography): did not affect the enzyme processing by APMA
CLU 50 μg/ml (0.63 μM), APMA, RT 3 h, 0.002% Brij 35, compared with PBS and BSA
  inhibition of the activity of MMP-9: 28%
FIG. 3B
  dose-dependent inhibition of MMP-9, comparison with SB-3CT: stronger MMP-9 inhibitor than a synthetic gelatinase inhibitor, SB-3CT
pro-MMP-9 or APMA-activated MMP-9, 0.04% Brij 35 or NP-40
  MMP-9 inhibition at high detergent concentration: little MMP-9 inhibition
